# Laboratory results reported in US20050054569A1, “Mutants and assay system to identify USP/RXR ligands” (published 2005).
# T1: USP (ultraspiracle) wild-type (Drosophila melanogaster, UniProt P20153 SEQ:1-508)
# T1 sequence: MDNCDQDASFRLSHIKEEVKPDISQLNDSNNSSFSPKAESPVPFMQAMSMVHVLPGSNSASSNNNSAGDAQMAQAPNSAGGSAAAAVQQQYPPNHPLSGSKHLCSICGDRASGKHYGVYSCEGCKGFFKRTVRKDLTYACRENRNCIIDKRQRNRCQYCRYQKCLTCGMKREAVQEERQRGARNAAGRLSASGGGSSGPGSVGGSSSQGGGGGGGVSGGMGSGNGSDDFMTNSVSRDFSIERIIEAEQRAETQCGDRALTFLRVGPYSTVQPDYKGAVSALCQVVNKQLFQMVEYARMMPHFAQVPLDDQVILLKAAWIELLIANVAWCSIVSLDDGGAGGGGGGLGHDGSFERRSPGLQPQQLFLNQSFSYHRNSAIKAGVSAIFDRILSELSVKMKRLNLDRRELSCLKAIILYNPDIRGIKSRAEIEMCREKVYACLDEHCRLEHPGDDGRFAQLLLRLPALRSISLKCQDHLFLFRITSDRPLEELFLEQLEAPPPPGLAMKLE
# T2: USP C472A/H475L (Drosophila melanogaster, UniProt P20153 SEQ:1-508, C472A/H475L)
# T2 sequence: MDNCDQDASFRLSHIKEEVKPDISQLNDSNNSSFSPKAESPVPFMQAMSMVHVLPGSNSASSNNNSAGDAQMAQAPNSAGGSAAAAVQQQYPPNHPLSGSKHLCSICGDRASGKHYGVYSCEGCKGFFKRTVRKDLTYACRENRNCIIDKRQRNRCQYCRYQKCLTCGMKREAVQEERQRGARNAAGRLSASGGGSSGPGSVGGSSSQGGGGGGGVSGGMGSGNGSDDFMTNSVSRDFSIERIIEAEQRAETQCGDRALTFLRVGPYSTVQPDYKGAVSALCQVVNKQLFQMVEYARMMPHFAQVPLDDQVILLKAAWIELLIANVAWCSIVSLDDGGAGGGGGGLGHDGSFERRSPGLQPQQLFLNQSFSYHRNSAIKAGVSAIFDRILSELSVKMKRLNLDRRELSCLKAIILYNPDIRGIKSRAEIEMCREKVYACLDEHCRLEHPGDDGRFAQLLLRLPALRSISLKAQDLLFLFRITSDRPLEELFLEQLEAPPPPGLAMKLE
# B1: pGL3 polylinker (nonself) (dsDNA)
# DNA 1: GGTACCGAGCTCTTACGCGTGCTAGCCCGGGCTCGA
# DNA 2: TCGAGCCCGGGCTAGCACGCGTAAGAGCTCGGTACC
# B2: His-tagged wild-type Drosophila melanogaster USP (bacterially overexpressed) (receptor)
# chain: MDNCDQDASFRLSHIKEEVKPDISQLNDSNNSSFSPKAESPVPFMQAMSMVHVLPGSNSASSNNNSAGDAQMAQAPNSAGGSAAAAVQQQYPPNHPLSGSKHLCSICGDRASGKHYGVYSCEGCKGFFKRTVRKDLTYACRENRNCIIDKRQRNRCQYCRYQKCLTCGMKREAVQEERQRGARNAAGRLSASGGGSSGPGSVGGSSSQGGGGGGGVSGGMGSGNGSDDFMTNSVSRDFSIERIIEAEQRAETQCGDRALTFLRVGPYSTVQPDYKGAVSALCQVVNKQLFQMVEYARMMPHFAQVPLDDQVILLKAAWIELLIANVAWCSIVSLDDGGAGGGGGGLGHDGSFERRSPGLQPQQLFLNQSFSYHRNSAIKAGVSAIFDRILSELSVKMKRLNLDRRELSCLKAIILYNPDIRGIKSRAEIEMCREKVYACLDEHCRLEHPGDDGRFAQLLLRLPALRSISLKCQDHLFLFRITSDRPLEELFLEQLEAPPPPGLAMKLE
# notes: Full-length dUSP cloned into pET32EK, purified on nickel resin and Superdex 200; also called wild-type dUSP; His-dUSP fusion protein; not shown: His tag / fusion part from the vector pET32EK
# B3: P498W/P499W mutant USP (receptor, not shown: small tags and cut ends)
# chain: MDNCDQDASFRLSHIKEEVKPDISQLNDSNNSSFSPKAESPVPFMQAMSMVHVLPGSNSASSNNNSAGDAQMAQAPNSAGGSAAAAVQQQYPPNHPLSGSKHLCSICGDRASGKHYGVYSCEGCKGFFKRTVRKDLTYACRENRNCIIDKRQRNRCQYCRYQKCLTCGMKREAVQEERQRGARNAAGRLSASGGGSSGPGSVGGSSSQGGGGGGGVSGGMGSGNGSDDFMTNSVSRDFSIERIIEAEQRAETQCGDRALTFLRVGPYSTVQPDYKGAVSALCQVVNKQLFQMVEYARMMPHFAQVPLDDQVILLKAAWIELLIANVAWCSIVSLDDGGAGGGGGGLGHDGSFERRSPGLQPQQLFLNQSFSYHRNSAIKAGVSAIFDRILSELSVKMKRLNLDRRELSCLKAIILYNPDIRGIKSRAEIEMCREKVYACLDEHCRLEHPGDDGRFAQLLLRLPALRSISLKCQDHLFLFRITSDRPLEELFLEQLEAWWPPGLAMKLE
# notes: Two prolines at the end of alpha-helix 12 replaced by tryptophan
# B4: His-tagged mutant dUSP Cys472Ala/His475Leu (bacterially overexpressed) (receptor)
# chain: MDNCDQDASFRLSHIKEEVKPDISQLNDSNNSSFSPKAESPVPFMQAMSMVHVLPGSNSASSNNNSAGDAQMAQAPNSAGGSAAAAVQQQYPPNHPLSGSKHLCSICGDRASGKHYGVYSCEGCKGFFKRTVRKDLTYACRENRNCIIDKRQRNRCQYCRYQKCLTCGMKREAVQEERQRGARNAAGRLSASGGGSSGPGSVGGSSSQGGGGGGGVSGGMGSGNGSDDFMTNSVSRDFSIERIIEAEQRAETQCGDRALTFLRVGPYSTVQPDYKGAVSALCQVVNKQLFQMVEYARMMPHFAQVPLDDQVILLKAAWIELLIANVAWCSIVSLDDGGAGGGGGGLGHDGSFERRSPGLQPQQLFLNQSFSYHRNSAIKAGVSAIFDRILSELSVKMKRLNLDRRELSCLKAIILYNPDIRGIKSRAEIEMCREKVYACLDEHCRLEHPGDDGRFAQLLLRLPALRSISLKAQDLLFLFRITSDRPLEELFLEQLEAPPPPGLAMKLE
# notes: also called C472A/H475L; double mutant dUSP; not shown: His tag / fusion part from the vector pET32EK
# Columns and labels:
# [1] = target: T1, USP (ultraspiracle) wild-type; experiment: competition; 100x nonself competitor, specificity control; conditions: tags: His-tag, pET32EK (Novagen); chain copies: monomer and homodimer (stated)
# Experimental: (§1) Control competitions with self and nonself unlabelled excess probes confirmed the specificity of binding. […] (B) The homodimer-enriched fraction of each receptor preparation was then analyzed for binding to […] methyl epoxyfarnesoate, using an intrinsic fluorescence assay method that tracks ligand binding (by suppression in receptor fluorescence) Jones et al., (2000) Insect Biochem. Mol. Biol. 30, 671-679; Jones et al. (2001), Insect Biochem. Mol. Biol. 32, 33-49. […] Arrows show time of addition of methyl epoxyfarnesoate or EtOH carrier.
# (§2) Nuclear extracts were isolated from Sf9 cells as previously described Jones et al. (2001) Insect Biochem. Mol. Biol. 32, 33-49; Jones et al (1998) Biochem. J. 335, 79-84; 79-84; Jones et al. (2000) Biochem. J. 346, 233-240. For the DR12 probe, the double stranded DR12 oligonucleotide (sequence as shown above) was 5′ end-labelled with ³²P by T4 polynucleotide kinase (New England Biolabs Inc.), and then purified from a 20% native polyacrylamide gel. The same double stranded DR12 oligonucleotide was used in 100-fold excess as a self competitor. For the 4DR12Core probe, the 4DR12Core sequence was liberated from the vector as a 148-bp ClaI/HindIII fragment, and was 5′ end-labelled with ³²P and purified. The same, unlabelled fragment was used at 100-fold excess as a self competitor. […]
# USP C472A/H475L = target: T2, USP C472A/H475L; experiment: as above; conditions: tags: His-tag, pET32EK (Novagen); chain copies: monomer and homodimer (stated)
# Experimental: as §1, §2
# [2] = target: the molecule itself; experiment: dimerisation, gel mobility shift on DR12 probe (not shown)
# [3] = target: the molecule itself; experiment: homodimerisation, gel mobility shift on 4DR12 probe; bands assigned with Superdex 200 fractions
# Text: Arrows show time of addition of methyl epoxyfarnesoate or EtOH carrier.
# Nuclear extracts were isolated from Sf9 cells as previously described Jones et al. (2001) Insect Biochem. Mol. Biol. 32, 33-49; Jones et al (1998) Biochem. J. 335, 79-84; 79-84; Jones et al. (2000) Biochem. J. 346, 233-240. For the DR12 probe, the double stranded DR12 oligonucleotide (sequence as shown above) was 5′ end-labelled with ³²P by T4 polynucleotide kinase (New England Biolabs Inc.), and then purified from a 20% native polyacrylamide gel. The same double stranded DR12 oligonucleotide was used in 100-fold excess as a self competitor. For the 4DR12Core probe, the 4DR12Core sequence was liberated from the vector as a 148-bp ClaI/HindIII fragment, and was 5′ end-labelled with ³²P and purified. The same, unlabelled fragment was used at 100-fold excess as a self competitor. As a negative control for specificity in gel shifts, the 36 bp BglII/KpnI polylinker region fragment of the pGL3 vector was liberated and recovered from low melting point agarose gels and used as a 100 nonself competitor (sequence: […], SEQ ID NO: 17). […]
binder,measurement,setting,value
B1,binding result,[1],no binding
same,binding result,USP C472A/H475L,no binding
B2,binding result,[2],binds
B3,binding result,[2],binds
B4,binding result,[3],binds
